# Data reported in publication PMC5317049, “Ex vivo^18O-labeling mass spectrometry identifies a peripheral amyloid β clearance pathway” (Molecular Neurodegeneration, 2017).
# Tests used:
# plasma Aβ = details: anti-amyloid treatment; 45 (solanezumab), 9, 22 (ponezumab), 7; cited from earlier work
# From the text: To explore this hypothesis, we tested the effect of recombinant versions of the antibodies solanezumab, ba ...
# Aβ1-40 = target: T1, Aβ1-40 (Homo sapiens, UniProt P05067); assay: Effect of antibodies on Aβ degradation in 5% serum; type: biochemical; details: 4 μg recombinant antibody in 1 ml PBS with 0.016 μM labeled Aβ1-40, 1 h pre-incubation, then 5% serum overnight, room temperature; IP-MALDI MS
# T1 construct: To 1 ml PBS containing isotopic labeled Aβ1-40 (0.016 μM) 4 μg of each of the recombinant antibodies; purchased Anaspec, Inc
# Experimental: The antibodies were expressed and purified as previously described. Each sample was spiked with serum (5%, end concentration) followed by incubation overnight at room temperature. The samples were placed in a 100 °C heating block for five minutes to disrupt potential antibody/Aβ complexes, and subsequently centrifuged for 10 min at 4 °C (31.000 x g). The supernatants were transferred to new tubes and Aβ peptides were immunoprecipitated and analyzed by mass spectrometry as described above.
# IDE = details: EDTA in plasma collection tubes; cited from earlier work
# Aβ = details: than solanezumab; cited from earlier work
# [1] = target: T2, insulin-degrading enzyme (IDE) (Homo sapiens, UniProt P14735); assay: Inhibition of IDE activity by insulin; type: biochemical; details: increasing insulin (0.1, 1 or 10 μM), PBS spiked with Aβ1-40 Arg13C15N, overnight, room temperature; IP-MALDI MS (Fig. 5c)
# T2 construct: purchased Sigma
# Experimental: […] The samples were incubated overnight at room temperature. Immunoprecipitation and mass spectrometry were conducted as described above.
Molecule,increase of plasma Aβ concentration compared to physiological levels (plasma Aβ),effect on proteolytic degradation of Aβ1-40 in serum (Aβ1-40),also measured
solanezumab: recombinant version of the mid-domain anti-Aβ antibody solanezumab,up to thousand-fold,effectively abrogated,
O=C(O)CN(CCN(CC(=O)O)CC(=O)O)CC(=O)O [EDTA],,,effect on IDE proteolytic activity (IDE): inhibit IDE proteolytic activity
crenezumab: recombinant anti-Aβ antibody crenezumab,,did not block the degradation,affinity for Aβ compared with solanezumab (Aβ): much lower affinity
insulin: insulin added as competing substrate to inhibit IDE-mediated proteolytic activity,,,inhibition of IDE-mediated proteolysis of Aβ1-40 Arg13C15N [1]: abundance of Aβ1-20 decreased with increasing insulin concentration
"ponezumab: C-terminal (Aβ X-40) antibody ponezumab (antibody, chains of the INN, looked up, V domains shown) VH: QVQLVQSGAEVKKPGASVKVSCKASGYYTEAYYIHWVRQAPGQGLEWMGRIDPATGNTKYAPRLQDRVTMTRDTSTSTVYMELSSLRSEDTAVYYCASLYSLPVYWGQGTTVTVSS VL: DVVMTQSPLSLPVTLGQPASISCKSSQSLLYSDAKTYLNWFQQRPGQSPRRLIYQISRLDPGVPDRFSGSGSGTDFTLKISRVEAEDVGVYYCLQGTHYPVLFGQGTRLEIK",up to thousand-fold,,
